Values of other authors as cited in PMC8145179.

Molecular target: Cys215 (UniProt position 215, PVVVHCSAGIG)
Details: apo (ligand-free) enzyme

Protein tyrosine phosphatase 1B (PTP1B) (Homo sapiens (inferred; not stated in the article))
pKa: 5.4
